Measured values as given in article PMC8164048.

Columns and labels:
[1] = target: Full-length human low-density lipoprotein receptor-related protein 1 (LRP1) (human) (UniProt Q07954); assay: SPR; full-length LRP1 coupled to the chip (Biacore 3000); single-cycle kinetic titration of tau forms (3.8, 11.5, 34.4, 103.3, 310 nM, 3.5-min injections), with Ca2+; Req from a pseudo first-order fit plotted against concentration, KD by nonlinear regression
[2] = target: Full-length human low-density lipoprotein receptor-related protein 1 (LRP1) (human) (UniProt Q07954); assay: SPR; LRP1-coupled chip; lipid-free apoE isoforms injected at 52, 104, 208, 417, 834, 1668 nM; association and dissociation fit globally to a bivalent binding model; KD = 1/KA, KA = (ka1/kd1)*(1+(ka2/kd2))
[3] = target: Full-length human low-density lipoprotein receptor-related protein 1 (LRP1) (human) (UniProt Q07954); assay: SPR; LRP1-coupled chip; lipid-free apoE isoforms; equilibrium analysis, Req from a pseudo first-order fit of the association data

Chain of UniProt Q07954 (Q07954 20-4544): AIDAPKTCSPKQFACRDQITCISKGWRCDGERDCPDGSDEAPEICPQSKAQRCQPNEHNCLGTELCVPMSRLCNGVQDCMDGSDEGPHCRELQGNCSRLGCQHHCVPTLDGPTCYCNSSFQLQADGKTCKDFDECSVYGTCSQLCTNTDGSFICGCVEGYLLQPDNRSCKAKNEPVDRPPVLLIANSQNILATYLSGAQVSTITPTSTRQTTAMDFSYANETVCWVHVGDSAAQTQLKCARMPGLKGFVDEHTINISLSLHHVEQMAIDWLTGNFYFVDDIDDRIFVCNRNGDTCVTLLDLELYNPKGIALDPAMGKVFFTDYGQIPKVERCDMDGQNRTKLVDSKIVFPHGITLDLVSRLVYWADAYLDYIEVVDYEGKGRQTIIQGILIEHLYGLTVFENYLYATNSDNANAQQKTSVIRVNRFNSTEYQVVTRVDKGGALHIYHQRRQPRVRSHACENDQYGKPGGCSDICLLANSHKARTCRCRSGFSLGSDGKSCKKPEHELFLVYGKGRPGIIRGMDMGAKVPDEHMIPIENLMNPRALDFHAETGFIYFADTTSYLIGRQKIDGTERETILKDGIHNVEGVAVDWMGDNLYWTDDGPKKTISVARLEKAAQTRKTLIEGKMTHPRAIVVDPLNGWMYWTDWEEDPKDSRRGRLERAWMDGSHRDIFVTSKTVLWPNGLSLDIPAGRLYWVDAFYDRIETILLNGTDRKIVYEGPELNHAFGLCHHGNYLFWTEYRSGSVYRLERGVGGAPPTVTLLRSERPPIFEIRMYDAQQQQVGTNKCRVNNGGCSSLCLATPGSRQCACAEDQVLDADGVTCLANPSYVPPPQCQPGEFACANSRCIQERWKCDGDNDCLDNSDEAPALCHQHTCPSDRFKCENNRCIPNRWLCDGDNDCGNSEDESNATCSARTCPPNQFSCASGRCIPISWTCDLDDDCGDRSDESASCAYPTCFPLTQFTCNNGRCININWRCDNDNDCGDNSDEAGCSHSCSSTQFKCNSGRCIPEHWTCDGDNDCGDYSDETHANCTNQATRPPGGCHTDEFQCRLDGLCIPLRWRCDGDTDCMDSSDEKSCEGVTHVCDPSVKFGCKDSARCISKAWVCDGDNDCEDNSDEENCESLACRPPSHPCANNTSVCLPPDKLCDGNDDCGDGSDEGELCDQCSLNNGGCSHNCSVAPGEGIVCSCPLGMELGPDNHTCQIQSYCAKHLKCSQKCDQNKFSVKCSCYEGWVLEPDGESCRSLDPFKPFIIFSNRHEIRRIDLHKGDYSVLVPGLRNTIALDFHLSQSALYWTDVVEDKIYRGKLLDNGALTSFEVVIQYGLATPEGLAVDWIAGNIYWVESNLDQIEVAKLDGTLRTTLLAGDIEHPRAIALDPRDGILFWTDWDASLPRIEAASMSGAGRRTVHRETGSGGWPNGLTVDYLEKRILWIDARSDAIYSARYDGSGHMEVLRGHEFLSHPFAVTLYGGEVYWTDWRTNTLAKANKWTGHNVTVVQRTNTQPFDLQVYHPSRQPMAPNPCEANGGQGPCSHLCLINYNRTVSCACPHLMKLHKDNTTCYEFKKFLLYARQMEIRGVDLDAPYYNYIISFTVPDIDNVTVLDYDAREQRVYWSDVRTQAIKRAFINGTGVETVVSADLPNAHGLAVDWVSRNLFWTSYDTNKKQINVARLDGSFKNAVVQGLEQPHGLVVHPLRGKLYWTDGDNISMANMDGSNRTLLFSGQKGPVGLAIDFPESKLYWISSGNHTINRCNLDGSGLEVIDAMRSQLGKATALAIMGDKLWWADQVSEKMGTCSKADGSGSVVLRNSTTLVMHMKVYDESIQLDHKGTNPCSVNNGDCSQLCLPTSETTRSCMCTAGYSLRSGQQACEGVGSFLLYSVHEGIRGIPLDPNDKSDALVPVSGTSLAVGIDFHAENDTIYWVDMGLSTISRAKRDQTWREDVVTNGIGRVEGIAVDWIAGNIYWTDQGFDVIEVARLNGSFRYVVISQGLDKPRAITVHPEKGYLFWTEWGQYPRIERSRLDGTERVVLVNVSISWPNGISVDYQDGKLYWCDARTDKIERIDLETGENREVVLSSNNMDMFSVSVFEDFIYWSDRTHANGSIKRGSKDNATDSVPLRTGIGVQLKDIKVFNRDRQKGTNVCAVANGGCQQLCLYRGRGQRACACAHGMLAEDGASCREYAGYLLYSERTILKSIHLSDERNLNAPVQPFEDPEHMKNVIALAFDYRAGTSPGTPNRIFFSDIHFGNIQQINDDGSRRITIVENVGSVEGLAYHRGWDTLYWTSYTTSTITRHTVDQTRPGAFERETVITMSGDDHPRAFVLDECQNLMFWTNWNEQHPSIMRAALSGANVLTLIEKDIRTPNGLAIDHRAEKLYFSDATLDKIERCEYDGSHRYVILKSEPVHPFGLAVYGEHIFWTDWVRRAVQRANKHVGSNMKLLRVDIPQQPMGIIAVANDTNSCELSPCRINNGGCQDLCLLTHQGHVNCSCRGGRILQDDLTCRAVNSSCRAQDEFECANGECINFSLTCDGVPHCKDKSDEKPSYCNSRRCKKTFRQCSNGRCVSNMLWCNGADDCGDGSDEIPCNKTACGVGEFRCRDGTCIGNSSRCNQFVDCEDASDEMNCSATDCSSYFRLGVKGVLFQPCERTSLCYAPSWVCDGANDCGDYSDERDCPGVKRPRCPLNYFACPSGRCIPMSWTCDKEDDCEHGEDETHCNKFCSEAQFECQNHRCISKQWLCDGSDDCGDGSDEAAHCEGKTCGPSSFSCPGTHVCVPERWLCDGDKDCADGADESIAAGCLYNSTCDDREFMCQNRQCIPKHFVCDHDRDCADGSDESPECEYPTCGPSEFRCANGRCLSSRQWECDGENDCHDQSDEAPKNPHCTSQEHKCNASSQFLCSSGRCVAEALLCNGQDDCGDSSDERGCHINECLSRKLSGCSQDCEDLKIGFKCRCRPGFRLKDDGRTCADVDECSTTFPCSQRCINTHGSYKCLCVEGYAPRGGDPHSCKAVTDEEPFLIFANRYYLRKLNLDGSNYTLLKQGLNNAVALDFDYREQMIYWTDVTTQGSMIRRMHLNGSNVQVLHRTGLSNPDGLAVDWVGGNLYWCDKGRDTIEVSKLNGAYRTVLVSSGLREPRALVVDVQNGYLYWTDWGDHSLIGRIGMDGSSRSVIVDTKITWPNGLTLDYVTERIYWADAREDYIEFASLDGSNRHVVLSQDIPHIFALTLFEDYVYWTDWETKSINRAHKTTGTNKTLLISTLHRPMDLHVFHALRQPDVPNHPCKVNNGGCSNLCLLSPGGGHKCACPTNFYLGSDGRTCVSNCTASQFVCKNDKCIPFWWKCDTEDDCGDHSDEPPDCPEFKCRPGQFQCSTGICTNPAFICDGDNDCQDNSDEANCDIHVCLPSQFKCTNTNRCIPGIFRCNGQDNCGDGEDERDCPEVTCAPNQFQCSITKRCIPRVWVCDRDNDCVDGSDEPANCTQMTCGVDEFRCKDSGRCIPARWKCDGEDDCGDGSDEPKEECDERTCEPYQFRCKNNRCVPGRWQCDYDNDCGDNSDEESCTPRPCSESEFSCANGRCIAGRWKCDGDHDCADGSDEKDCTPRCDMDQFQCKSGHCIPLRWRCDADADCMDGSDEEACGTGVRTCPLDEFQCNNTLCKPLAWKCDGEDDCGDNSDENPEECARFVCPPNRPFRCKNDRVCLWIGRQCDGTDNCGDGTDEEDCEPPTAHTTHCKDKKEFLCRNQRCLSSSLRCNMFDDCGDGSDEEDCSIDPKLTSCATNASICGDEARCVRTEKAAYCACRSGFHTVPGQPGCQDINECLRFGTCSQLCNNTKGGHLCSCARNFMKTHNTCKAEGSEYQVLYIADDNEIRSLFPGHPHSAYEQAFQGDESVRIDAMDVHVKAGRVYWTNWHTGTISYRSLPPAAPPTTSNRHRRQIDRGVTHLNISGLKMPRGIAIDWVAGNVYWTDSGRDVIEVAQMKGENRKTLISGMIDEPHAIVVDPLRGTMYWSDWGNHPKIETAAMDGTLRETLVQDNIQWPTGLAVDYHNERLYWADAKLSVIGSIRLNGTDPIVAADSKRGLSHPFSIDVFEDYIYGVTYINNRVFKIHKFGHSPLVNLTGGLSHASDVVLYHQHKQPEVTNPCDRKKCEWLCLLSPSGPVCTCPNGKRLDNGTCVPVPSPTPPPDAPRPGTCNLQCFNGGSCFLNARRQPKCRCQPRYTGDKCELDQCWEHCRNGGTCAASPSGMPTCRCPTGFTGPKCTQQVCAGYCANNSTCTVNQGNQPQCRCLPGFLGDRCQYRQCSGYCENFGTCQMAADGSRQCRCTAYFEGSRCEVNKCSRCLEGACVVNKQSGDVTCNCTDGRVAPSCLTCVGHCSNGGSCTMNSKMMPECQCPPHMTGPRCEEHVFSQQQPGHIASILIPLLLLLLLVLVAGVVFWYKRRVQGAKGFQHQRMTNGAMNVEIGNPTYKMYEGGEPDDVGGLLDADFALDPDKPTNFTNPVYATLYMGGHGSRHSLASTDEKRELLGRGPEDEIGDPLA

Kd [1] | Kd [2] | ka1 [2] | ka2 [2] | kd1 [2] | kd2 [2] | Kd [3] | Substance
372 nM | – | – | – | – | – | – | 9XKQ 2N4R tau (natural protein)
– | 529 nM | 34000 M⁻¹ s⁻¹ | 0.01 s⁻¹ | 0.086 s⁻¹ | 0.0028 s⁻¹ | 493 nM | Recombinant human apolipoprotein E2 (lipid-free) (from UniProt P02649 19-317) (ligand)
– | 202 nM | 62000 M⁻¹ s⁻¹ | 0.0099 s⁻¹ | 0.065 s⁻¹ | 0.0027 s⁻¹ | 236 nM | Recombinant human apolipoprotein E4 (lipid-free) (from UniProt P02649 19-317) (ligand)
